Measurements reported in the supplement of paper PMC9732359.
± gives the uncertainty stated by the source.

Assay: protein stability index of a GFP-peptide fusion (yeast GPS) (PSI 1-4); higher = more stable; sorted into four equal gates, so the index is relative within each strain
How it was run: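 Plasmids in a pooled yeast library fused tiled 17-residue yeast protein peptides downstream of GFP and also expressed Cherry. Mid-log cultures grown without leucine were sorted into four equal gates by GFP/Cherry fluorescence ratio. Each gate's plasmids were PCR-amplified and Illumina-sequenced, and reads were matched to strains by barcodes. The protein stability index is derived by multiplying each gate's read frequency by its gate number and summing the results.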

| Sequence | protein stability index (doa10∆) | protein stability index (pdr5∆) | protein stability index (san1∆) | protein stability index (ubr1∆) |
| --- | --- | --- | --- | --- |
| PNEHPGAKYVIRDSGDR [RPO21] | 3.01 ± 0.084 | 3.1 ± 0.087 | 2.7 ± 0.15 | 3.03 ± 0.069 |
| LSDYIPGPYPNEQAARA [CYT1] | 2.1 ± 0.054 | 2.54 ± 0.05 | 2.4 ± 0.063 | 2.39 ± 0.05 |
| RRSLKKQGRIKNATEEL [CSN12] | 3.2 ± 0.098 | 3.56 ± 0.083 | 3.37 ± 0.086 | 3.57 ± 0.066 |
| SPYNADFDGDEMNLHVP [RPO21] | 3.15 ± 0.076 | 3.27 ± 0.068 | 3.15 ± 0.078 | 3.1 ± 0.061 |
| NDSSATRSWRPPQAGDR [RPB8] | 3.06 ± 0.26 | – | – | 2.76 ± 0.26 |
| SKKVTSGVPRLKEILNV [RPO21] | 1.81 ± 0.1 | 2.06 ± 0.12 | 1.55 ± 0.23 | 1.1 ± 0.083 |
| KDAVDYSKIPNILSNKP [RRP6] | 1.51 ± 0.096 | 1.97 ± 0.093 | 1.58 ± 0.21 | 1.58 ± 0.049 |
| VDPIQSVKGKVVIDAFR [RPN11] | 2.59 ± 0.072 | 2.65 ± 0.092 | 2.1 ± 0.093 | 2.26 ± 0.081 |
| RSSRLHIVYSLLVNPDI [YML103C/NUP188] | 1.57 ± 0.047 | 2.01 ± 0.05 | 1.87 ± 0.075 | 2.26 ± 0.05 |
| ALERYDEAEGRFEVINN [SMC1] | – | 1.12 ± 0.17 | – | – |
| SWRNITNLSGGEKTLSS [SMC4] | 3.37 ± 0.13 | 3.21 ± 0.078 | 2.81 ± 0.098 | 3.01 ± 0.11 |
| DELVKLLLDNGFNMKKI [SRP68] | – | – | 2.98 ± 0.24 | 3.52 ± 0.13 |
| SFKLCTLLIAIRGSNRD [YML103C/NUP188] | 1.31 ± 0.048 | 1.78 ± 0.061 | 2.01 ± 0.077 | 2.41 ± 0.046 |
| MVSTPELKKYMDKKILL [SMX2] | 3.25 ± 0.15 | 3.62 ± 0.12 | 3.26 ± 0.092 | 3 ± 0.074 |
| PKPDKPSGRTRGRSVMK [ESC2] | 3.14 ± 0.17 | 3.05 ± 0.15 | 3.08 ± 0.098 | 3.7 ± 0.13 |
| LEFSALSAADIVAQSEV [RPO31] | 3.01 ± 0.093 | 3.13 ± 0.075 | 3.1 ± 0.071 | 3.17 ± 0.059 |
| ANSQIQAYEEIISSNEN [YIL149C/MLP2] | 2.95 ± 0.19 | 3.46 ± 0.17 | 3.31 ± 0.22 | 3.45 ± 0.12 |
| QLYEDLCRYEDTLSKLV [MED4] | 2.62 ± 0.097 | 2.67 ± 0.16 | 2.75 ± 0.27 | 3.25 ± 0.09 |
| SPVSSVHTANFSERGSN [MED2] | 2.71 ± 0.083 | 2.82 ± 0.068 | 2.53 ± 0.072 | 2.86 ± 0.044 |
| DSVLQLASFEKTTDHLF [RPO31] | 2.63 ± 0.054 | 2.64 ± 0.04 | 2.83 ± 0.06 | 2.74 ± 0.041 |
| LESKMSEVGDAFIFGLQ [SMC3] | 3.29 ± 0.061 | 3.28 ± 0.06 | 3.31 ± 0.041 | 3.34 ± 0.052 |
| LLKKIIFEKELMYQIKK [SRB4] | 2.8 ± 0.073 | 2.67 ± 0.083 | 2.32 ± 0.09 | 2.17 ± 0.05 |
| DSFSGAKIYPGRGTLFV [RPL24A] | 3.13 ± 0.065 | 3.08 ± 0.067 | 2.78 ± 0.06 | 2.68 ± 0.052 |
| YRSCETQDESEIKDAET [SMC4] | 3.77 ± 0.25 | – | 3.31 ± 0.16 | – |
| KGHKFNNTKAGRRKTWK [RPL15A] | 2.79 ± 0.063 | 2.93 ± 0.081 | 2.8 ± 0.093 | 3.1 ± 0.1 |
| KELENNLERLRSDLQSK [YIL149C/MLP2] | 3.17 ± 0.062 | 3.3 ± 0.094 | 3.05 ± 0.068 | 3.2 ± 0.053 |
| VDSRATAGNWVASQTVK [PRE2] | 3.17 ± 0.12 | 3.4 ± 0.079 | 3.13 ± 0.078 | 3.26 ± 0.066 |

| Sequence | protein stability index (doa10∆) | protein stability index (pdr5∆) | protein stability index (san1∆) | protein stability index (ubr1∆) |
| --- | --- | --- | --- | --- |
| QIANEFNTQQGIKKHSL [YDL116W/NUP84] | 3.01 ± 0.055 | 3.3 ± 0.049 | 3.18 ± 0.04 | 3.11 ± 0.038 |
| YLRVSFKNTRETAQAIN [RPL17A] | 1.51 ± 0.03 | 1.34 ± 0.042 | 1.5 ± 0.1 | 1.31 ± 0.034 |
| LQFHVATYMDNDIAGQP [RPO21] | 2.6 ± 0.07 | 2.53 ± 0.073 | 2.6 ± 0.053 | 2.66 ± 0.056 |
| RNNSKSVLLKKLGSVRV [SRP72] | – | 1.33 ± 0.11 | – | 1.69 ± 0.087 |
| GQSSSIQSSLMTNLTYF [YCS4] | 2.86 ± 0.095 | 2.74 ± 0.071 | 2.56 ± 0.086 | 2.95 ± 0.065 |
| TKIFNSVAEVFQKAQGS [YCG1] | 1.89 ± 0.12 | 1.55 ± 0.23 | – | 1.5 ± 0.07 |
| SSIQESLLSLVGHLSIL [ECM29] | 2.01 ± 0.045 | 1.75 ± 0.043 | 1.83 ± 0.053 | 1.6 ± 0.025 |
| EGHLAEIRAKEYKTSSD [SRB2] | 3.22 ± 0.11 | 3.29 ± 0.081 | 3.18 ± 0.051 | 3.26 ± 0.078 |
| NSANGSSLNGTNAKIPQ [SSN3] | 2.38 ± 0.071 | 2.72 ± 0.071 | 2.53 ± 0.076 | 2.56 ± 0.057 |
| VTRTQQWSMVAQRLQIS [SWI1] | 2.05 ± 0.051 | 1.89 ± 0.049 | 2.27 ± 0.07 | 2.06 ± 0.04 |
| KDQLPDLESMGLTQLYK [MED7] | 2.85 ± 0.07 | 3.08 ± 0.071 | 2.87 ± 0.077 | 3.13 ± 0.069 |
| EDARRNPNPSSQRAQVV [RPC37] | 3.18 ± 0.073 | 3.26 ± 0.064 | 3.02 ± 0.064 | 3.38 ± 0.054 |
| FLQRIDFQIDGNIFELL [RRI2] | 2.63 ± 0.1 | 2.92 ± 0.071 | 2.37 ± 0.07 | 2.64 ± 0.048 |
| ELPTQLALEIIVRPAKG [RRP46] | 1.52 ± 0.041 | 1.57 ± 0.044 | 1.49 ± 0.079 | 1.84 ± 0.045 |
| IREIDVTGGKKALVLFV [RPS7B] | 1.3 ± 0.085 | 1.5 ± 0.1 | 1.3 ± 0.21 | 1.23 ± 0.063 |
| GKHSIGLIWYLLAREVL [RPS0A] | 1.59 ± 0.073 | 1.87 ± 0.064 | 1.65 ± 0.1 | 2.06 ± 0.054 |
| IAMPKRRMAFKPFGSAK [YLR335W/NUP2] | 2.86 ± 0.052 | 3.09 ± 0.064 | 3.11 ± 0.043 | 2.73 ± 0.044 |
| EKESDDGLLEYLEDIIG [SMC4] | 3.47 ± 0.091 | 3.31 ± 0.075 | 3.15 ± 0.079 | 3.54 ± 0.1 |
| NSAARNIQHLLYGKRFF [PRE7] | 2.13 ± 0.08 | 2.72 ± 0.084 | 2.12 ± 0.1 | 2.45 ± 0.076 |
| MISIIKLVTNVVDPKTS [YML103C/NUP188] | 1.84 ± 0.047 | 1.81 ± 0.045 | 2.04 ± 0.093 | 1.67 ± 0.035 |
| VEASRRRRSSTNKSKRP [MED1] | 3.19 ± 0.066 | 3.31 ± 0.056 | 3.22 ± 0.044 | 3.28 ± 0.043 |
| NSDHAKFTIEPGVLPVG [SNF2] | 2.23 ± 0.046 | 2.27 ± 0.054 | 2.32 ± 0.098 | 1.83 ± 0.046 |
| VDPEQEAHNKALNQFKR [RPT4] | 3.37 ± 0.19 | 3.26 ± 0.13 | 3.41 ± 0.11 | 3.02 ± 0.14 |
| HKQGSSYVAVLGMGKAV [POP7] | 1.69 ± 0.077 | 1.71 ± 0.053 | 1.66 ± 0.082 | 1.86 ± 0.062 |
| RLQQQQAQAQAQANNNN [GAL11] | 2.03 ± 0.093 | 2.55 ± 0.078 | 2.74 ± 0.076 | 2.04 ± 0.06 |
| EKKLEDYCRILSDIETA [YGL172W/NUP49] | 1.75 ± 0.11 | 3.14 ± 0.09 | 2.67 ± 0.11 | 2.55 ± 0.089 |
